Assay results taken from patent US20220016257A1 (Daiichi Sankyo, published 2022).

Columns and labels:
[1] = biological target: T1, human CDH6 (full-length, on cells) (human, UniProt P55285 54-790); assay: flow cytometry, 293T cells transiently transfected with pcDNA3.1-hCDH6 (open) against untransfected 293T cells (shaded), antibody 10 ng/mL, anti-rat IgG-FITC
T1 construct: also called hCDH6; full-length hCDH6
T1 sequence: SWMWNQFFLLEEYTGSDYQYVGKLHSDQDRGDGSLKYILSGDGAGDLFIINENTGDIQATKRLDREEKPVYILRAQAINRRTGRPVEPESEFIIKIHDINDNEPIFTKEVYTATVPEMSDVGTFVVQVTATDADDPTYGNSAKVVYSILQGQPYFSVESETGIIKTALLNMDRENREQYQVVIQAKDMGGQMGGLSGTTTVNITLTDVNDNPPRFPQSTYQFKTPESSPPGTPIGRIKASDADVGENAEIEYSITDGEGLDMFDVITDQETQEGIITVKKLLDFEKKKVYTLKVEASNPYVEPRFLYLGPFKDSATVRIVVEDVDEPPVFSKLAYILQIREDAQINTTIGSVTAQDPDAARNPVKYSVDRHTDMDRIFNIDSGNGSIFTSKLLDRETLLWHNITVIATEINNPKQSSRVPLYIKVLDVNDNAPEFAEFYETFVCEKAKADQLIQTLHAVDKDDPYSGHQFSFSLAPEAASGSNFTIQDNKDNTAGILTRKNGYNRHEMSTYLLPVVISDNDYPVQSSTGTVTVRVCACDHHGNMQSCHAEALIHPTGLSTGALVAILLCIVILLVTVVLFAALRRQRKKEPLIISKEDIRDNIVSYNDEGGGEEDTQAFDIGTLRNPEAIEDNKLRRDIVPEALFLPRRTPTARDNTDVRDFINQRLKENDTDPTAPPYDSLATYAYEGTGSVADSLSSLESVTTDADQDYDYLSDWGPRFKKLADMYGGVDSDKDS
Experimental: The human CDH6-binding activity of the rat anti-CDH6 antibody produced in Example 1)-7 was evaluated by flow cytometry. […] The cells were cultured overnight under conditions of 37° C. and 5% C02, treated with TrypLE Express (Thermo Fisher Scientific Inc.), and thereafter, a cell suspension was prepared. […] Thereafter, the cells were suspended by the addition of the rat anti-CDH6 monoclonal antibody (clone No: rG019), which had been prepared in Example 1)-7, or rat IgG control (R&D Systems, Inc.) (final concentration: 10 ng/mL). The cells were left standing at 4° C. for 1 hour. The cells were washed twice with PBS supplemented with 5% FBS, and then suspended by the addition of Anti-Rat IgG (whole molecule)-FITC antibody produced in rabbit (Sigma-Aldrich Co. LLC) that had been 50-fold diluted with PBS supplemented with 5% FBS. The cells were left standing at 4° C. for 1 hour. The cells were washed twice with PBS supplemented with 5% FBS, followed by detection using a flow cytometer (FC500; Beckman Coulter, Inc.). The data was analyzed using FlowJo (TreeStar, Inc.). In the histogram of FIG. 1, the abscissa depicts FITC fluorescence intensity indicating the amount of the antibody bound, and the ordinate depicts a cell count. […] The rat IgG control binds to neither of the cells.

[2] = biological target: T2, EC3-deleted human CDH6 (EC3 deletion mutant, on cells) (human, UniProt P55285 54-790); assay: flow cytometry, 293α cells transiently expressing EC3-deleted hCDH6 (open) against untransfected cells (shaded), anti-rat IgG-FITC [4]
T2 construct: Full-length human CDH6 lacking EC3; Cloned in p3xFLAG-CMV-9; also called EC3-deleted hCDH6
T2 sequence: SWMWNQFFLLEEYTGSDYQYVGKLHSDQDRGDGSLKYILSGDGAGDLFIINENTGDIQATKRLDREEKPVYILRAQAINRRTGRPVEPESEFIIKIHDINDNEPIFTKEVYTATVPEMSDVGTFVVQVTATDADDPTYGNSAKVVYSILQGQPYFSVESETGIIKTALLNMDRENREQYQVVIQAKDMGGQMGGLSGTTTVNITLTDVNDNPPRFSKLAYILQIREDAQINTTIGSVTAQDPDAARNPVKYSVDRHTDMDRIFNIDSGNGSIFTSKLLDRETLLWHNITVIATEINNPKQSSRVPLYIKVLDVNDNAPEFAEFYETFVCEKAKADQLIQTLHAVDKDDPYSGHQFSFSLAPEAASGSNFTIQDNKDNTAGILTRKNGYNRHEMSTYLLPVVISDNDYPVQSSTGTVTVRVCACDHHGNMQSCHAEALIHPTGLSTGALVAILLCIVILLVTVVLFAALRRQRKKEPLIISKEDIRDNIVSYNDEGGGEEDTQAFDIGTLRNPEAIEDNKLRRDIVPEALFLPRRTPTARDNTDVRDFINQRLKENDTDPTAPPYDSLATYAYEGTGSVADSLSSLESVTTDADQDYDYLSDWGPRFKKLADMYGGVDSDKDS
Experimental: The cells were cultured overnight under conditions of 37° C. and 5% CO₂, treated with TrypLE Express (Thermo Fisher Scientific Inc.), and thereafter, a cell suspension was prepared. […] Thereafter, the cells were suspended by the addition of the anti-CDH6 monoclonal antibody (clone No: rG019), which had been prepared in Example 1)-7, or rat IgG control (R&D Systems, Inc.) (final concentration: 20 nM). The cells were left standing at 4° C. for 1 hour. The cells were washed twice with PBS supplemented with 5% FBS, and then suspended by the addition of Anti-Rat IgG (whole molecule)-FITC antibody produced in rabbit (Sigma-Aldrich Co. LLC) that had been 50-fold diluted with PBS supplemented with 5% FBS. The cells were left standing at 4° C. for 1 hour. The cells were washed twice with PBS supplemented with 5% FBS, followed by detection using a flow cytometer (Canto II; BD Biosciences). The data was analyzed using FlowJo (TreeStar, Inc.). In the histograms of FIGS. 2-1 to 2-2, the abscissa depicts FITC fluorescence intensity indicating the amount of the antibody bound, and the ordinate depicts cell count. […] Fluorescence intensity is enhanced when the antibody binds to full-length hCDH6 or each EC domain deletion mutant on the surface of cells.

- binding result [1]: binds
- binding result [2]: no binding (tested: 20 nM)
B1: rat anti-CDH6 monoclonal antibody rG019 (antibody, IgG2b, V domains shown)
VH: QVQLQQSGAELVKPGSSVKISCKASGYTFTRNFMHWIKQQPGNGLEWIGWIYCGDGETEYNQKFNGKATLTADRSSSTAYMELSRLTSEDSAVYFCARGVYGGFAGGYFDFWGQGVMVTVSS
VL: DIQMTQSPSLLSASVGDRVTLNCKASQNIYKNLAWYQQKLGEGPKLLIYDANTLQTGIPSRFSGSGSGSDFTLTISSLQPEDVATYFCQQYYSGWAFGGVTNLELKRA
notes: Rat antibody purified from hybridoma supernatant; also called rG019 antibody; clone rG019
